Key:
Notch3 (EGF5-12) = target: T1, Notch3 (EGF5-12) (Homo sapiens, UniProt Q9UM47); experiment: SPR determination of equilibrium dissociation constants; type: binding
T1 construct: hNotch3 (EGF5-12, residues 197-505); gp67 signal peptide (N); made in house; host or cells: HiFive Trichoplusia ni insect cells (baculovirus)
T1 sequence (Q9UM47 197-505): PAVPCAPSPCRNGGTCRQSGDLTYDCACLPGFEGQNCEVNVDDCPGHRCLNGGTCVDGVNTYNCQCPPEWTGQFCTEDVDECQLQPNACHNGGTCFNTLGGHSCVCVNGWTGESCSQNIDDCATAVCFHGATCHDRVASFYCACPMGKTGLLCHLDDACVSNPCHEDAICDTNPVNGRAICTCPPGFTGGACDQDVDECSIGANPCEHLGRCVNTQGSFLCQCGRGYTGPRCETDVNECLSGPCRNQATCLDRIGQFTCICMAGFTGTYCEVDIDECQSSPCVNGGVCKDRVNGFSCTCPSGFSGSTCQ
Description: (§1) Equilibrium dissociation constants were determined by surface plasmon resonance using a Biacore T200 instrument (GE Healthcare). Approximately 100 resonance units (RU) of biotinylated Notch extracellular fragments (Notch1 (EGF6-13), Notch2 (EGF6-13), Notch3 (EGF5-12), Notch4 (7-12), and mouse Notch1 (EGF6-13)) were immobilized on individual flow cells at 5 μl/min using a streptavidin-coated sensor chip (Series S Sensor chip SA, GE Healthcare). Three-fold serial dilutions of recombinant DLL4 proteins (N-EGF5) starting at 50 μM (WT DLL4), 18 μM (DLL4.v2), and 6 μM (DLL4.v1 and Delta^MAX) were flowed over the chip at 25° C. in SPR buffer (20 mM HEPES pH 7.4, 150 mM NaCl, 1 mM calcium chloride, 0.1% BSA supplemented with 0.005% surfactant P20). Association (“on-rate”) and dissociation (“off-rate”) phases were performed at 10 μl/min for 120 seconds and 300 seconds, respectively. The sensor chip was regenerated after each injection with 30-second washes of 2.25M Magnesium Chloride containing 25% Ethylene Glycol at 50 μL/min. Data collection rate was performed at 10 Hz, and curves were reference-subtracted from a flow cell containing 100 RU of a negative control non-related protein (biotinylated mouse RNF43 PA domain). The maximum RU for each experiment was normalized to a value of 100% and plotted as a function of concentration using Prism 9 software (GraphPad). Steady-state binding and kinetic curves were fitted using the Biacore T200 evaluation software to a 1:1 Langmuir model to determine the KD values.

Notch2 (EGF6-13) = target: T2, Notch2 (EGF6-13) (Homo sapiens, UniProt Q04721); experiment: as above; type: binding
T2 construct: hNotch2 (EGF6-13, residues 221-530); gp67 signal peptide (N); made in house; host or cells: HiFive Trichoplusia ni insect cells (baculovirus)
T2 sequence (Q04721 221-530): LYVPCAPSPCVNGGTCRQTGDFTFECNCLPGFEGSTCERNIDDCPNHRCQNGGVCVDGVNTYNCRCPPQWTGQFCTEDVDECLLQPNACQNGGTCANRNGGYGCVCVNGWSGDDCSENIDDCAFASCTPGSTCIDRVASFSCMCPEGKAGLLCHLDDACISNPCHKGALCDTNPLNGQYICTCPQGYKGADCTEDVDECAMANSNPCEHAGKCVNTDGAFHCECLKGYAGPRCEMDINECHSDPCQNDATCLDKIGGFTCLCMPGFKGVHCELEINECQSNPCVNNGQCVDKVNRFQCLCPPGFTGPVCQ
Description: as §1

mouse Notch1 (EGF6-13) = target: T3, mouse Notch1 (EGF6-13) (Mus musculus, UniProt Q01705); experiment: as above; type: binding; conditions: mNotch1 EGF6-13; read-out: dissociation constant (KD)
T3 construct: mouse Notch1 (EGF6-13, residues 221-526); gp67 signal peptide (N); made in house; host or cells: HiFive Trichoplusia ni insect cells (baculovirus)
T3 sequence (Q01705 221-526): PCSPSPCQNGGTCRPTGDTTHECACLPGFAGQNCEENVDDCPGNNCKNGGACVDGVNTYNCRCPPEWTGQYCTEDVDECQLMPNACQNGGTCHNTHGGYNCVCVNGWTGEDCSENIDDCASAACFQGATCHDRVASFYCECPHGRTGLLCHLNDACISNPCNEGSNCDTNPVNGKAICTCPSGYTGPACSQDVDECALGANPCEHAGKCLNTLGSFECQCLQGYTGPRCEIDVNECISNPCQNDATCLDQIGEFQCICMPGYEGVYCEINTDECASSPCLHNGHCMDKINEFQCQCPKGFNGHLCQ
Description: as §1

Notch4 (7-12) = target: T4, Notch4 (7-12) (Homo sapiens, UniProt Q99466); experiment: as above; type: binding
T4 construct: hNotch4 (EGF7-12, residues 276-511); gp67 signal peptide (N); made in house; host or cells: HiFive Trichoplusia ni insect cells (baculovirus)
T4 sequence (Q99466 276-511): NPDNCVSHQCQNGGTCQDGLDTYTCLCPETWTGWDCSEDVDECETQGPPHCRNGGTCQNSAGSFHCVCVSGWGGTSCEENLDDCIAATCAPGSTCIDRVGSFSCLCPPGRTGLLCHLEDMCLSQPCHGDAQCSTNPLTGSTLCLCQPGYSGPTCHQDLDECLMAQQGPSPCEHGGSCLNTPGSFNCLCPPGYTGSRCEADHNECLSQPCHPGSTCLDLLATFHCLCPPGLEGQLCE
Description: as §1

endogenous Notch1 = target: T5, endogenous Notch1 (Homo sapiens, UniProt P46531); experiment: Western blot for cleaved Notch1 ICD in U2OS and MCF-7 cells; type: cell-based; conditions: 50 nM C-terminally anchored, 24 hours
T5 construct: cells expressing endogenous levels of Notch1; endogenous in cells; host or cells: U2OS; MCF-7
T5 sequence (P46531 19-2555): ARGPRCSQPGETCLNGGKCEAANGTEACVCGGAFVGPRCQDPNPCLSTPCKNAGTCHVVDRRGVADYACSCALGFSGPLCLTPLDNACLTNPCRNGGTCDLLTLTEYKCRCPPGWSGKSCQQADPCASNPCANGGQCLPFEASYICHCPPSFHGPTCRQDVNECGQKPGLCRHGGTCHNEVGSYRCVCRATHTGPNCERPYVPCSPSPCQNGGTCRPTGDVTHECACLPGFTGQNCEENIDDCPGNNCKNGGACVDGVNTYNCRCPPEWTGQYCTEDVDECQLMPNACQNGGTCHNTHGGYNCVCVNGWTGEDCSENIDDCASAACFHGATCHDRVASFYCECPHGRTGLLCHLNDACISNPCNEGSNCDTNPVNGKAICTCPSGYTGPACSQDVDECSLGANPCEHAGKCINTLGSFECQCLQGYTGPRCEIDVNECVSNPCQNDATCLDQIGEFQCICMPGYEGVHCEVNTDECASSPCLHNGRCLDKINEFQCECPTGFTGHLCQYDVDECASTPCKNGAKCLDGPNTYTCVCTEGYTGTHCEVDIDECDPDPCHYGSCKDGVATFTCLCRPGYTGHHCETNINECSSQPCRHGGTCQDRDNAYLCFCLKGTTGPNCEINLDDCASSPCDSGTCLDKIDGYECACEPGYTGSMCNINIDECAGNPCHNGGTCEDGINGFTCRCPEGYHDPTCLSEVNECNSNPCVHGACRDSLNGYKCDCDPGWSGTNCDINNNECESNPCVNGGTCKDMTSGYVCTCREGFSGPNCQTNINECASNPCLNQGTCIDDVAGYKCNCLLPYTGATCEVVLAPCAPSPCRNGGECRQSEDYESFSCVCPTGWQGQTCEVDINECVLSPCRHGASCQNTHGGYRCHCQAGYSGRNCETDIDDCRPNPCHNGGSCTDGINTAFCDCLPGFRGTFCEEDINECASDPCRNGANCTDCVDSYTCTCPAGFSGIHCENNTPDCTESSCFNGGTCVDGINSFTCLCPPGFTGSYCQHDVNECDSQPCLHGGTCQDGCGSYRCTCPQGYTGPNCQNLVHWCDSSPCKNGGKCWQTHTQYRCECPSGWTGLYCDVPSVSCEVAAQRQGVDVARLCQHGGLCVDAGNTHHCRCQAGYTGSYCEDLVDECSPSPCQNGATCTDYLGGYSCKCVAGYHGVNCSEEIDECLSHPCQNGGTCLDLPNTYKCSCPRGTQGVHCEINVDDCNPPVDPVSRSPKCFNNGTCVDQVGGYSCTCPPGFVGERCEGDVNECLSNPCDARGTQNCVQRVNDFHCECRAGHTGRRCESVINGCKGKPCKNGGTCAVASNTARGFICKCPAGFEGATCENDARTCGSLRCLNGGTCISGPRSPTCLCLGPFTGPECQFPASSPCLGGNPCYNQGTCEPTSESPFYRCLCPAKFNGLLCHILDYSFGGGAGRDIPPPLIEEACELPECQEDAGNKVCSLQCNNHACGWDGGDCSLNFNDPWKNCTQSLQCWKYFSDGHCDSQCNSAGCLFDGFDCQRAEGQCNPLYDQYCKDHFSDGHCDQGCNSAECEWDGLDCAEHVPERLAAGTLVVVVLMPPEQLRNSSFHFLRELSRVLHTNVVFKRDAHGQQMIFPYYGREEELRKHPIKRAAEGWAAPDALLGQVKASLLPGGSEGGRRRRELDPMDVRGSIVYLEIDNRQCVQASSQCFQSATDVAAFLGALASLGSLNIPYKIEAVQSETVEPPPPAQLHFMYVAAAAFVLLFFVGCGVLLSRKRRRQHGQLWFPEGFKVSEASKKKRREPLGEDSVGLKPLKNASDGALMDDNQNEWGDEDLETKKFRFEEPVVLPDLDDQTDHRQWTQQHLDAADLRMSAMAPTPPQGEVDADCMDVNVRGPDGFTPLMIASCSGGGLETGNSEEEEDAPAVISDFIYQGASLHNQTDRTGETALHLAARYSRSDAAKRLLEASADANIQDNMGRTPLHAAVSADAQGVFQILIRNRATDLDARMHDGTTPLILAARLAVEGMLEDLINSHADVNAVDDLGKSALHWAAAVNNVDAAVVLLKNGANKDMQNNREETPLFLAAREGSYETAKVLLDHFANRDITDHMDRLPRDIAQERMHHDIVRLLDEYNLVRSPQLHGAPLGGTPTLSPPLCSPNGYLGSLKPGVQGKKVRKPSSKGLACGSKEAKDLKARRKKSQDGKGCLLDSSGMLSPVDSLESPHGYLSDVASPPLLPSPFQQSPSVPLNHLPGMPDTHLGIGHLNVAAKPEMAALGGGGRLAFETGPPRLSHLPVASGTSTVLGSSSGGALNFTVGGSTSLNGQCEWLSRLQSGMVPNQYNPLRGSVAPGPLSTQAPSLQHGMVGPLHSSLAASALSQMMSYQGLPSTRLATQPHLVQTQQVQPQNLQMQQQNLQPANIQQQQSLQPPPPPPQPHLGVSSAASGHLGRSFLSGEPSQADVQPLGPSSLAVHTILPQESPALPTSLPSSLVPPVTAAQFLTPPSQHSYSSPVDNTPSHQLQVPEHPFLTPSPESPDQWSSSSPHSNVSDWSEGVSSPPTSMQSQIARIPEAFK
Description: For Notch activation in U2OS and MCF-7 cells, WT DLL4 and Delta^MAX biotinylated ligands were immobilized at 50 nM in 6-well streptavidin-coated plates following a scaled-up protocol of the one described before. After 24 hours of stimulation, cells were lysed in Laemmli […] buffer (40% glycerol, 4% SDS, 250 mM Tris-HCl, 0.02% bromophenol blue, and 20% β-mercaptoethanol). Cell lysates were heated at 100° C. for 5 min, centrifuged at 21,000×g for 10 min at 4° C., and supernatants stored at −20° C. Proteins were separated by SDS-PAGE (12% Mini-PROTEAN TGX Precast Protein Gels, Bio-Rad) and transferred to PVDF membranes using an iBlot2 Gel Transfer Device (Thermo Fisher Scientific). The membranes were blocked in 3% BSA+0.1% TBS-Tween. Primary antibodies were anti-cleaved Notch1 (Val1744 rabbit mAb, Cell Signaling Technology, 1:1,000), and β-Actin (rabbit pAb, Cell Signaling Technology, 1:1,000). Secondary antibody anti-Rabbit IgG conjugated to HRP (Goat mAb, Vector Laboratories, 1:8,000) was used for detection of proteins using SuperSignal West Pico PLUS Chemiluminescent Substrate (Thermo Fisher Scientific). Images were acquired using an Amersham Imager 600 (GE Healthcare), and contrast adjusted with a curves layer.

[1] = SPR, 25° C., ligand N-EGF5, read-out: dissociation constant (KD)

B1: Delta^MAX: engineered human DLL4 consensus variant with 10 mutations combining DLL4.v1 and DLL4.v2 mutations; sequence matches SEQ ID NO: 4/10 (protein)
chain: SSVFQLQLQEFINERGVLASGRPCEPGCRTFFRVCLKHFQAVVSPGPCTFGTVSTPVLGTNSFAVRDDSSGGGRNPLQLPLNFTWPGTFSLIIEAWHAPGDDLRPEALPPDALISKFAIQGSLAVGQNWLLDEQTSTLTRLRYSYRVICSDNYYGDNCSRLCKKRNDYFGHYVCQPDGNPSCLPGWTGEYCQQPICLSGCHEQNGYCSKPAECLCRPGWQGRLCNECIPHPGCRHGTCSTPWQCLCDEGWGGLYCDQDLNYCTHHSPCKNGATCRNSGPRSYTCTCRPGYTGVDCELELSECDSNPCRNGGSCKDQEDGYHCLCPPGYYGLHCEHSTLSCADSPCFNGGSCRERNQGANYACECPPNFTGSNCE
enhancement of affinity compared to WT DLL4 (Notch3 (EGF5-12); Notch3): 591 fold | Kd (Notch3 (EGF5-12); [1]): 49 nM | enhancement of affinity compared to WT DLL4 (Notch2 (EGF6-13); Notch2): 670 fold | Kd (Notch2 (EGF6-13); [1]): 54 nM | Kd (mouse Notch1 (EGF6-13)): 25 nM | enhancement of affinity compared to WT DLL4 (Notch4 (7-12)): 532 fold | Notch1 activation (cleaved Notch1 ICD) vs WT DLL4 (endogenous Notch1; MCF-7 cells): much more potently | Notch1 activation (cleaved Notch1 ICD) vs WT DLL4 (endogenous Notch1; U2OS cells): much more potently

From US20260055369A1, “METHOD FOR GENERATING CELLS OF THE T CELL LINEAGE WITH ENGINEERING BROADLY REACTIVE HUMAN NOTCH LIGAND” (H. Lee Moffitt Cancer Center and Research Institute, Inc., priority 2022, published 2026)
